From PMC8844075, “Structural basis of neuropeptide Y signaling through Y1 receptor” (Nature Communications, 2022)

Biological target: T1, Y1R L26^NA/F28^NA mutant (printed L28^NA/F28^NA) (human, UniProt P25929 1-384, L26^N to A (the mutant's label is printed L28^NA; the same sentence names the …)
T1 sequence (looked up): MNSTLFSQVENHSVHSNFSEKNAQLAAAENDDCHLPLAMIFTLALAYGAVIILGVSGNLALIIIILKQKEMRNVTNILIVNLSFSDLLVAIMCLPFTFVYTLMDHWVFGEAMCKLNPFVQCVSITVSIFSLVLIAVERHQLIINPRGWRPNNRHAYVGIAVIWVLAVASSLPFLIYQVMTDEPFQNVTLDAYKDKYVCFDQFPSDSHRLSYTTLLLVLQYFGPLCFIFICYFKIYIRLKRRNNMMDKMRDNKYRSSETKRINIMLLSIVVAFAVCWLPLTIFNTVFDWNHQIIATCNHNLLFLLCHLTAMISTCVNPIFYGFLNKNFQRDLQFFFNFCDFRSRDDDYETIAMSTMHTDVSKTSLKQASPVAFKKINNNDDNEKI
Experiment: cell-based or functional assay

NPY signalling, increase in EC50 against wild-type Y1R: 2.8 fold
B1: neuropeptide Y (NPY) (peptide)
peptide: not shown
modifications: C-terminal amide (amidated C-terminal residue Y36)
